B1: Non-structural protein 1 (Influenza B virus (strain B/Lee/1940)), P03502 (parent)
chain: MADNMTTTQIEVGPGATNATINFEAGILECYERFSWQRALDYPGQDRLHRLKRKLESRIKTHNKSEPENKRMSLEERKAIGVKMMKVLLFMDPSAGIEGFEPYCVKNPSTSKCPNYDWTDYPPTPGKYLDDIEEEPENVDHPIEVVLRDMNNKDARQKIKDEVNTQKEGKFRLTIKRDIRNVLSLRVLVNGTFLKHPNGDKSLSTLHRLNAYDQNGGLVAKLVATDDRTVEDEKDGHRILNSLFERFDEGHSKPIRAAETAVGVLSQFGQEHRLSPEEGDN

The variants in this assay derive from B1. Particulars: with isg15_human ISG15, P05161.
Sequence of isg15_human ISG15, P05161 (P05161 whole entry): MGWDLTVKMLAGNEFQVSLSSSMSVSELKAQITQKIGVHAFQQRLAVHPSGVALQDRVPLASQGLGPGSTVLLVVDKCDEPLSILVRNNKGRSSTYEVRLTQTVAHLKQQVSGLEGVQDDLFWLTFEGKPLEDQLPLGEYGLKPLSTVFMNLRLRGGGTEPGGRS
As to M91A;F100A, the “effect of a mutation on the interaction” value is on record as “decreasing interaction strength”.

In the case of W36A;Q37A, the “effect of a mutation on the interaction” value was “disrupting interaction strength”.

Values taken from IntAct's records for PubMed 21808041.
